{"source": "paper PMC8154254", "about": "“On the Track of Long-Range Electron Transfer in B-Type Dye-Decolorizing Peroxidases: Identification of a Tyrosyl Radical by Computational Prediction and Electron Paramagnetic Resonance Spectroscopy” (Biochemistry, 2021)"}
{"system": "CCn1c(=NN=c2sc3cc(S(=O)(=O)O)ccc3n2CC)sc2cc(S(=O)(=O)O)ccc21", "assay": "purified protein", "conditions": "40 μM H2O2, 100 nM enzyme, 50 mM phosphate-citrate pH 5.0, room temperature", "units": {"Km": "µM", "kcat": "s⁻¹", "kcat/Km": "M⁻¹ s⁻¹"}}
{"substance": "KpDyP (B-type Klebsiella pneumoniae dye-decolorizing peroxidase) (Klebsiella pneumoniae; Y237F)", "Km": "36 ± 7", "kcat": 4.6, "kcat/Km": 125000}
{"substance": "KpDyP (B-type Klebsiella pneumoniae dye-decolorizing peroxidase) (Klebsiella pneumoniae; W18F/Y92F)", "Km": "84 ± 8", "kcat": 6.5, "kcat/Km": 77000}
{"substance": "KpDyP (B-type Klebsiella pneumoniae dye-decolorizing peroxidase) (Klebsiella pneumoniae; W18F)", "Km": "54 ± 8", "kcat": 4.7, "kcat/Km": 86000}
{"substance": "KpDyP (B-type Klebsiella pneumoniae dye-decolorizing peroxidase) (Klebsiella pneumoniae; Y247F)", "Km": "270 ± 16", "kcat": 8.7, "kcat/Km": 33000}
{"substance": "KpDyP (B-type Klebsiella pneumoniae dye-decolorizing peroxidase) (Klebsiella pneumoniae; Y247F/Y92F)", "Km": "345 ± 73", "kcat": 12.8, "kcat/Km": 37000}
